Experimental data taken from the DeepSol protein solubility set.

Assay: soluble on expression in E. coli; label from the status in PepcDB or PDB records

Sequence	soluble on expression in E. coli
MGSDKIHHHHHHMKLGVNLCFAVKRWLEPDRLAGLVRDDLGLEYVQYTYDLTDPWWPDIERDRRAIAYAKAFRKAGLTIESTFGGLASYTYNHFLAPTLELQSLGYQHLKRAIDMTAAMEVPATGMPFGSYSAADALNPARREEIYAIARDMWIELAAYAKRQGLSMLYVEPVPLATEFPSSAADAARLMADLDGRTEIPVRLLVDWGHALFEPLFGPEADMDHWMDLCQPWIAAYHIQQTDGQLDRHWSFTQPGVVTPQRLQDFWDKYALTDQTFFAEILYPFEARDEDVLADMIASVKALKAASPAA	not soluble
MGSDKIHHHHHHMKLYELAMTPSARRVNIFLKELGLNEQELGLERESLNLRAGDNLSDEFKAISVNGRIPVLELDDGQTLCESVAICRYFDEIITSAHSLFGDTPLEKAQVEMWQRICELQGLFVAFQAFRNITKVYEDRERCVEAWGQESRQRVIEFLPTLEKQLGQQPFVAGQNFSIADITAYVMMSFIKHLEITPSDDQPHLTAWLTKMEQRPSIIAVNG	not soluble
MGSDKIHHHHHHMKMATTHQSSTKQDILEYLHKHEKATALELAEVLDVTPQAIRRHLKDLETEELVLYSTSVQAAGMGRPQHLYELSRQGRDRLHRTMSDRFGDASGNFAVSLLDTLAETVGHDQFKSILEKQWQRKAKEYRDRVGNGSLRERVANLVELRKAEGFMAEYHAVDVNDTFESDRFILMEHNCAISNVAESFPSICGHELEMFAAVLPDCTVERTHWIIDGEHRCGYLVQVRH	not soluble
MGSDKIHHHHHHMKMIIGRKIGMTRVFVGNDSVPVTVIKAGPCVVVQKKTVEKDGYNAVQLGFEKAKKVNKPLAGHFKKFGVEPMKILREFRVENPDEYEPGQVIKVDVFEKGEYVDVTGWTKGRGFAGAMKRWGFSGGPKSHGSKFHRELGSVGQHTEPAKIWKGKKMPGRYGNERVTVRNLQVVDIDPENDLLVVKGGVPGARGGLVLIRSAKAPKK	not soluble
MGSDKIHHHHHHMKNLLGYSEDYLKERKGYITAKEICNQPKLWRETYEIILSQREKLKSFLDNFAKKPNAKIVITGAGSSAFVGNSVVSYLNAKENIKIEAIATTDIVSHPFYYLKKDEPTLLISCARSGNSPESTAAVTLAEKIVDDISHLIITCNSEGKLALHAKRNYNSFLLLMPEESNDKGFAMTGSFSTMLLSCLLIFNLDKLESIGKQIESISMQGEKVLVNNVELMKKIVGEKFKRTVYLGAANAFGLAKESALKVLELTAGKIATLYDTPLGFRHGPKSIIDDETLIVIFFSNDTYAREYEYDLLKEVYSQNGNHKVLAISEYEDKLIEDNSDYFIAINKEEQEYEDDSFLSLDYLLNAQMYAFINSMELGIGPDNPCPTGEVNRVVKGVIIHDYR	not soluble
MGSDKIHHHHHHMKQFWNWKNYQIAWQVEETSNDSGIAIVLIHGFGACKEHWRFNQKTISSIAPCYALDLIGFGDSSKPNSQIPYEKKTYQNFNYCFDNWSQLVYDFCNEIVKKPVLLIGNSIGGVIALNTSKKLSQKALGVILIDCAQRTMDDKRLAEQSLLMRFLRPVIKTFVRQRLLSSNIFNIAAQPKFIAKILKVAYPSRNNVDEELIDTLFKPTQSKGAPEAFRGFINLFDDYLAPNLLKEMNTSVHLIWGEKDPWEPVKEAQKWFKTFECIKSLDVISDAGHCPHDEMPEKVNPILIKIIQEAI	not soluble
MGSDKIHHHHHHMKQKNYHSCTVGQIVAGNFDTTKVFSRYHIDFCCHGNTPFAEACRNRGIDPEAVAHELNELQENTVSNAPDFAGWPIDLLIDYVLKIHHRGIRAKGPQIEALLTKVTEAHSKNHPELLQVQALFRDSLLDLENHLSKEENVLFPYVYEMFQAKEEGLKVAKFHCGTILYPIEVMEDEHNHEGERFEKISSLTNGFTAPEDACASFRLVLQQLKQFEEALHEHIHLENNIIFPRALELEKKEAI	not soluble
MGSDKIHHHHHHMKQNLTLILMNEAVREGWREWMEKVRKVLPQTDAERPVTWIAAERLAQENGRMVRLVELLREHRPVLSYRVKEEAGLLILVAYHRHGSSSDFLLETAEAYFRERDCGGFLFLCRMQASINAYDEYPHLNVLCNRLAGLLFRFRRERASEYRKGIPPMFSGADLQEVEKYLPHLRGCSFREEIALALPKVKNVEELARECAMSVNTLGRRFKEELNTTPHRWLTEQRKAHVTSLLADTDMPLQEIADVCGFATPSYLWDFCKKHLKATPAEIREIARCARTV	not soluble
MGSDKIHHHHHHMKQSEQEEPLTGGNVSDVSRIGETVRREQKPESLRVHRVLQHLEQKGFEGSPRYLGIDPQGREILSFIEGEAGNYPLQPYMQSDRVLEETARLLRSYHEAVADFPIPTDWQPLDGTPEPLELICHNDFAVYNVIFQNERPVGIIDFEVAAPGPRIWDIAYTMYTFVPLSRHQMTEDGEPAHYNPVNDQERIRRRVLLFLSAYGKAELKDEMYETVLLRVEALIKTIHRRAAEGDDAFQRMIDDGHVTHYEQEIDFLKREGADWFR	not soluble
MGSDKIHHHHHHMKQSKKIIITCAVTGSIHTPTMSPYLPITPEEIVKEGVAAAEAGAAMLHLHARDPLNGRPSQDPDLFMRFLPQLKERTDAILNITTGGGLGMSLDERLAPARAARPEVASMNMGSLNFNISQAAAKFDTFKFDWERPYLAGTRDFILSNTFSQIERGMTELGASGTRFEFECYDVGHLYNLAHFVDRKLVEPPFFLQCVFGILGGIGADPENLLHMRTIADRLFGQDYYLSVLAAGRHQMPFVTMSAILGGNVRVGLEDSLYSGKGQLATSNAEQVRKIRRIIEELSLDIATPDEARAMLKTKGANETSF	not soluble
MGSDKIHHHHHHMKRPLKVLVVGAKFGELYLNSFLLEQPGLQLAGLLANGSPRARALANAFGIALYTDIEQLPDDLDIACVVVRSAVVGGAGGQLTESLLRRGLHVIQEHPVHPDELVRHQQLATRMGCQYIVNSFYPHTEAGRCWAGTAQRISRLLEGRKPNLAQLTTSRQLLYSGLDLLFQALGCDLARQVSVSLLDGDDDFHTLSLNLPDSRVLLRLQRWMAADDPDLHSLVMHQLNLAWPSGYLSLDATYGPVNWTPALHAEAHDDDRQTLYTSNADYLQHATAMPLHPAASHWRSAHEIEGPAGVGWLLQQLLAVLQGRPRADGLQADYQLAVARLWQDILRCAGPAEQRMASAPLFIDAAQLRAEG	not soluble
MGSDKIHHHHHHMKSILLFMIFVVCQLEGKKFSQDNFKVDYNYYLRKQDLHIIKTQNDLSNSWYLPPQKAPKEHSWVDFAKKYLNMMDYLGTYFLPFYHSFTPIFQWYHPNINPYQRNEFKFQISFRVPVFRHILWTKGTLYLAYTQTDWFQIYNDPQSAPMRMMNFMPELIYVYPINFKPFGGKIGNFSEIWIGWQHISNGVGGAQCYQPFNKEGNPENQFPGQPVIVKDYNGQKDVRWGGCRSVSAGQRPVFRLVWEKGGLKIMVAYWPYVPYDQSNPNLIDYMGYGNAKIDYRRGRHHFELQLYDIFTQYWRYDRWHGAFRLGYTYRINPFVGIYAQWFNGYGDGLYEYDVFSNRIGVGIRLNP	not soluble
MGSDKIHHHHHHMKSTTVPSEGGGGLDATTRTSVQPHPLHGPDATWQETNCYIDLWIELLHAWGLDPRAALPFTVAQDFEGDHFTFFKYPQADLETLYGTVVQEMAVYDTLQAHVVTQVERGHTVLVEVDSYYLPDTHATAYKREHVKTTVAIDNIDPHAQRLSYFHSLGYHSAHDEDYRGLMRLSRELSGNGNILFPYAECAKRVRPALTMPAMADASVALMRQHLDRLPAINPVTLWRREFDAHMDTLLARDDAYFHLYTFNLPRQLGANFEMLHHWLRWLDEQGRGNPLAARAAESAATIAAEAKVLQFRLARAVARRRADPCTQSLDVLECCYDKTVEGLLSAFGDTRLAAA	not soluble
MGSDKIHHHHHHMKSVQDRLSQTTNPSPKSYQQLYQEIVSDPEVAAFIKKEGLTQQEITLSISKFLEYISQRDLFVKQDEAYIAKGYQPVLVMNEGYADVSYLETEELVEYRRLEAIKNRIQLINMPASLKNVTVADIDKSDENRVEVMLAIADFVKRFEEKPKGLYIYGNFGIGKSYLMAYLANLLSKTHLQSTTMLHYPTFVVDIKNAIKDGSVKERIDEIKMAQVLVLDDIGAEQHSPWVRDDVLQVILQYRMQENLPTFFTSNFSFDDLERHFASGKSGDETWQAKRVMERIRYLARDLHLKGNNRR	not soluble
MGSDKIHHHHHHMKSWVENVTIKKYEDRSGLTGLKQGPLVWTEVFLREVNRQSNTGILHFWPMDQTVILGMMDSQVAQLDKGLASIGQAGYSPIIRSLGGLAVVADDGILNVTLIFPNPSGHKVDLRESYQVMVDLIAQALSDFPFEVVSGEVATSYCPGTYDLSIKGRKFAGLAQRIYQEAIAISAYISVSGNQVKRGQVVADFYAASFAPQEVSDRFPQVNPNSMANLSDLVAQDLTMEDMKIRIEHVLIENGAFLTTFYPSSDNMADFMALGKTIKQSMEKYGI	not soluble
MGSDKIHHHHHHMKTIMYLHAGAEMYGSDKVLLQLVTGLDKKQFKPIVVLPEHGPLEKALETNDIQTEVVAYPILRRKYFNPKGIFNYASGYFKAEKVLANLAIKYHVDLIHVNTLAVLEGITLKKRIKKPLIWHVHEILLSPKFMWKLTAYLSAKYADKIVVVSNATGEHLKKAGYAKENQIVTIYNGINIPKGLENSDFRQEFDIPKNAFVFGHVGRINAWKGQEDFLKASLKLMSNYSKVHVLFSGNAYKGEEWREEKLKKEINESGFSDRIHYLGFQHEIRKVFNTMNVFVSSSIRPDPFPMVTLEAMANSKPIVSYDHGGPSELIVNAKTGYLVQPHNIDDLSLKMSMLINPKLESKFGVVGRKRVLSEFSETKFLQNFSFLYGDM	not soluble
MGSDKIHHHHHHMKTLSIVWAVVGLMLIGGCDQTPQAQSTQSKSMANVVGTTSANQDDLAFTPIVPGYKFEFPRDHLAHNNFRQEWWYLTANLTTETGEQLGAQWTQFRVALKPTDLQTIAPQVTDATPKSESTWATQQLYLAHSALTSSNAHLAHEKWSRRHSEFAEVKLDPYQIRLDNWHWQSETNALFPATLTVENPDFSYQLKLNSQAPLQYQGANGYSLKSRDGQVASYYYSQPFIEISGEINRNGKMERVTGQGWLDREWSSQFLTKTQQGWDWFALRLNDGSTLMLFQLRDQSPAESAKNAPISAFYSARRMFADGTGRNINSTDNPNDIQMTPLQWQHTVNGDYPVSWQVKIPSENIDITITPLNPNSAMPLSTPYWEGPVQLSGSHTGTGYMELTGY	not soluble
MGSDKIHHHHHHMKTQYFSDVDETVITTTLSNGLRLQVVPRPAYHKSYAIMTTDYGSIDTQFAPDGKQMVTYPAGIAHFLEHKLFEKEDHDAFDLFGETGASANAFTSATKTSFLFSTTTQLTKNLQILLDFVQTPFFSKASVAKEQGIIGSEIQMYQDDPGWRGYAGLLENLFPNHPAHVDVAGTVASIAQITPEMLYTIHRVFYQPSNMTLIVVGNIDADAIMAFVAANQAAKQFPAPQAIVRGVHADLQTDDIVPYRQLEMPISRPKTLVGIKGQVAIPMTAEGWRYQLTIRLLLEVLFGDSSQLYQDWYDRGLIDDSFDFDFTNQRSFSYGLVGGDTDDPHALSDAIKHVLLNAATQPDLTRDRVALIKRASLGKYYAGLNGLNGVANQLSALSFGQASLFDFPEILSSITLADLQAMIDQVFQAKALTVLDMIPEAD	not soluble
MGSDKIHHHHHHMKTRDRIVHASLELFNLNGEPGITTNHIAAHLGMSPGNLYYHFRNKEDIIRSIFDLYQQHLEKGFQPYENKQVDMALLMGYFDALFYTLWQFRFMYANLVIILGRDEELKQKYLGIQQQVLARSSNILQQLKKDKVLDIADDEITPLADTIRMIAGFWISNQLTYSGAANITKSSLYEGLLRVLMLFKAYSTSDSFETFKHLEQHYRTLALEDDQ	not soluble
